Measured values as given in patent US20210363204A1.

Molecular target: human Nav1.7, Q15858
Conditions: chains peptide; modification not given

## GPYCQKWMWTCDSERKCCEGMVCRLWCKKKLW [recombinant Protoxin-II]
  IC50: 62 nM
